No end group written: not given here. FAM = fluorescein
Biological target: Nb6E (alpaca)
Assay: in-gel fluorescence of the crosslinked product

**Q.** For {FAM}-QADQCAAELARQIS (not fully specified (residue 5)) [FAM-1(NO2)], which Kd is on record?
**A.** 206 nM
